T1: IL1RAP on HEK-Blue IL1β / HEK-Blue IL33 reporter cells (UniProt Q9NPH3 21-570, limits assumed)
T1 sequence (looked up): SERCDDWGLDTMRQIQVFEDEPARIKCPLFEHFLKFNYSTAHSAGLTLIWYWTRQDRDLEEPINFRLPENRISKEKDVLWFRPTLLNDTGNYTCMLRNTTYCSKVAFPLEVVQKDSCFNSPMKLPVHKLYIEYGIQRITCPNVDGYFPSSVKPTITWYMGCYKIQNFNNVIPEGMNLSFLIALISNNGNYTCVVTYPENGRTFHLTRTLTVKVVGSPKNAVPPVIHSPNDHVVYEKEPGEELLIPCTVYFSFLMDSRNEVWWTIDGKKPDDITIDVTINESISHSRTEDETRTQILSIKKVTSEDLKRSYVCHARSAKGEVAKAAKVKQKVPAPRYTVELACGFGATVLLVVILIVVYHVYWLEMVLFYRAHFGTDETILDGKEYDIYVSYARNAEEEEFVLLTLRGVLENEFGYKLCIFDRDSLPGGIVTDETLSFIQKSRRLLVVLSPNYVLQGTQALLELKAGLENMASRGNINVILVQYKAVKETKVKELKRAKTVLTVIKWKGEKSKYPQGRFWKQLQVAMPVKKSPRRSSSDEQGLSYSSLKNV

T2: recombinant mouse IL1RAP protein (Sino Biological, Cat #52657-M08H) (mouse, UniProt Q61730 21-359)
T2 construct: Bought protein
T2 sequence (looked up): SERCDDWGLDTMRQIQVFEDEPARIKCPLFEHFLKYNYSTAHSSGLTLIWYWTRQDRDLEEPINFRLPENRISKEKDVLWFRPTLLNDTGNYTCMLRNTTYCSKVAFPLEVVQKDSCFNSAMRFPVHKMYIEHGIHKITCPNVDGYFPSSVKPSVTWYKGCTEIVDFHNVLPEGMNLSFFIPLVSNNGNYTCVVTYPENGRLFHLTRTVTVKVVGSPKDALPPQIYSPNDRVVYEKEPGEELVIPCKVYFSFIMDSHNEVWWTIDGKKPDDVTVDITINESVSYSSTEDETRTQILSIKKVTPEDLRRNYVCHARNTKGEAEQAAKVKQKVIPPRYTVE

T3: cyIL1RAP-His (Lake Pharma) (cynomolgus monkey, UniProt A0A2K5X5J5 21-367)
T3 construct: Bought protein (Lake Pharma, lot 16205819371); also called cynomolgus IL1RAP; monkey IL1RAP; not shown: His tag
T3 sequence: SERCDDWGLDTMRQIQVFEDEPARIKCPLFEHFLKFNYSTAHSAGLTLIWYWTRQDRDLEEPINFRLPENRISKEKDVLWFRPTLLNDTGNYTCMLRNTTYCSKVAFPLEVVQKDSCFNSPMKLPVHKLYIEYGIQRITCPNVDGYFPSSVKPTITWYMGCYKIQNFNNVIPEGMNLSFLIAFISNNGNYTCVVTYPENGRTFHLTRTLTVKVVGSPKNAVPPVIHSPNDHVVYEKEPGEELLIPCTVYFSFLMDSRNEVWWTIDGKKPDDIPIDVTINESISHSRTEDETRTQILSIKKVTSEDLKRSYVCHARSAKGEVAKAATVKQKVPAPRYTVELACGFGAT

T4: recombinant human IL1RAP protein, extracellular domain His-tagged (Sino Biological, Cat #10121-H08H) (human, UniProt Q9NPH3 21-367)
T4 construct: extracellular domain; Bought protein; The Octet analyte is printed as huIL1RAP-His (Sino Biological, lot MB08MA1301) without a catalogue number; also called huIL1RAP-His; hIL1RAP; not shown: His tag
T4 sequence (looked up): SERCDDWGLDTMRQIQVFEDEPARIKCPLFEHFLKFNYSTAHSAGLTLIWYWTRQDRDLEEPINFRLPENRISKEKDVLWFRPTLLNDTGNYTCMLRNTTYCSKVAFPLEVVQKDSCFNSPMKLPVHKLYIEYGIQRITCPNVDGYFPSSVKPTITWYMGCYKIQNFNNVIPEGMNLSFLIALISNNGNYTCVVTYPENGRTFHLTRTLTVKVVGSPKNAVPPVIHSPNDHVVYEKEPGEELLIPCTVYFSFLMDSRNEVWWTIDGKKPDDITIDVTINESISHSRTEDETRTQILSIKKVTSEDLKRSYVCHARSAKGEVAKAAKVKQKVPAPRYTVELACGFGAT


What was measured:
[1] = target: T1, IL1RAP on HEK-Blue IL1β / HEK-Blue IL33 …; experiment: cell-based or functional assay
[2] = target: T1, IL1RAP on HEK-Blue IL1β / HEK-Blue IL33 …; experiment: cell-based or functional assay; remark: listed apart in the source
[3] = target: T2, recombinant mouse IL1RAP protein (Sino …); experiment: cell-free ELISA, mouse IL1RAP coated; data not shown
Description: Recombinant human or mouse IL1RAP proteins (Sino Biological, Beijing, China; Cat #10121-H08H and Sino Biological, Cat #52657-M08H respectively) were diluted in PBS, pH 7.4 at concentration of 1 μg/ml, coated on high-binding 384-well clear plates and incubated overnight at 4° C. Following, plates were washed 3× with 0.05% Tween-20 in PBS, pH 7.5 and then blocked with 1% BSA in PBS for 1 hour at room temperature. After 3× washes, wells were incubated with each antibody at the highest concentration of 100 nM followed by seven serial half log dilutions (in 1% BSA and 0.05% Tween-20 in PBS) for 1 hour at room temperature. Plates were then washed 3× and incubated with […] detection antibody (Medna, TX, USA; Cat #D8212, 0.5 μg/ml diluted in 0.02% Tween-20 in PBS). After 5× washes, Supersignal ELISA Pico substrate (Thermofisher, MA, USA; Cat #37069) was applied to wells and chemiluminescent signal was read on Sprectramax L for 200 ms/well. Similarly, detection with specific κ and λ antibodies was conducted to define light chain isotyping.

[4] = target: T3, cyIL1RAP-His (Lake Pharma); experiment: Octet BLI; mAb captured on anti-mouse IgG Fc sensor; cyIL1RAP-His analyte
Description: (§1) Antibodies were diluted in kinetics buffer (0.1% BSA, 0.02% Tween-20 and 0.05% NaN₃ in PBS) and loaded onto 16 channel anti-mouse IgG Fc capture sensors (AMC, Cat #2001073; Sartorius, Göttingen, Germany). Human, huIL1RAP-His (Sino Biological, lot: MB08MA1301), and monkey, cyIL1RAP-His (Lake Pharma, NY, USA; lot:16205819371) proteins were titrated starting from the highest concentration of 100 nM and followed by 50 nM and 25 nM. Purified antibodies were loaded at 5 μg/ml in kinetics buffer. The experimental parameters selected to determine the kinetic constants were Baseline for 60 s, Loading of antibody to sensor for 180 s, Association of analyte to antibody for 120 s, Dissociation for 1200 s and Regeneration in 10 mM Glycine pH 1.7 for 4×30 s.
(§2) Regeneration cycle tracking was selected for 12 cycles. Binding to human and cynomolgus IL1RAP was measured and KD (M) kinetics were calculated. Also, the disassociation rate (Kdis) (1/s) and association rate (Kon) (1/Ms) kinetics were calculated (data not shown).

[5] = target: T4, recombinant human IL1RAP protein, …; experiment: Octet BLI; mAb captured on anti-mouse IgG Fc sensor; huIL1RAP-His analyte
Description: as §1, §2

Row | IC50, HEK-BlueIL1β NFκB Reporter Assay [1] | Max % Inhibition at 200 nM, HEK-BlueIL1β NFκB Reporter Assay [1] | IC50, HEK-BlueIL33 NFκB Reporter Assay [2] | Max % Inhibition at 200 nM, HEK-BlueIL33 NFκB Reporter Assay [2] | binding result [3] | Kd [4] | Response [4] | koff [4] | kon [4] | Kd [5] | Response [5] | koff [5] | kon [5] | Binder
1 | 8.19e-10 M (implied; unit not printed) | 101% | 4.82e-09 M (implied; unit not printed) | 80% | no binding (tested: 100 nM) | 0.739 nM | 0.192 | 0.000259 s⁻¹ | 351000 M⁻¹ s⁻¹ | 0.83 nM | 0.17 | 0.000348 s⁻¹ | 420000 M⁻¹ s⁻¹ | STLX2017 (antibody, V domains shown, Purified from hybridoma of immunized Alivamab mice; intact IgG; captured on anti-mouse IgG Fc sensors in Octet; kappa light chain; also called 74804_17E20A) VH: EVQLVQSGAEVKKPGESLKISCKGSGYSFTSYWIGWVRQMPGKGLEWMGIIWPGDSDTRYSPSFQGQVTISADKSVNTAYLQWISLKASDTAIYYCARSSGGTAMDVWGQGTTVTVSS VL: not shown
2 | 1.96e-09 M (implied; unit not printed) | 100% | 8.31e-09 M (implied; unit not printed) | 86% | no binding (tested: 100 nM) | 2.82 nM | 0.242 | 0.00107 s⁻¹ | 380000 M⁻¹ s⁻¹ | 2.13 nM | 0.229 | 0.000747 s⁻¹ | 350000 M⁻¹ s⁻¹ | STLX2027 (antibody, V domains shown, Purified from hybridoma of immunized Alivamab mice; intact IgG; captured on anti-mouse IgG Fc sensors in Octet; lambda light chain; also called 74804_27I24A) VH: EVQLVESGGGLVKPGGSLRLSCAASGFTFITYSMNWVRQAPGKGLEWVSSISSISSYIYYADSVKGRFTISRDNAKNSLYLQMDSLRAEDSAVYYCAREGIVGPTGYFDSWGQGTLVTVSS VL: QSVLTQPPSVSAAPGQKVTISCSGSSSNIGNHYVSWYQQLPGTAPKLLIYDNNKRPSGIPDRFSGSKSGTSATLGITGLQTGDEADYYCGTWDSRLSAYWVFGGGTKLTVL
3 | 5.32e-10 M (implied; unit not printed) | 101% | 3.54e-09 M (implied; unit not printed) | 85% | no binding (tested: 100 nM) | 10.2 nM | 0.232 | 0.00259 s⁻¹ | 254000 M⁻¹ s⁻¹ | 2.19 nM | 0.249 | 0.000478 s⁻¹ | 218000 M⁻¹ s⁻¹ | STLX2021 (antibody, V domains shown, Purified from hybridoma of immunized Alivamab mice; intact IgG; captured on anti-mouse IgG Fc sensors in Octet; lambda light chain; also called 74804_21D11A) VH: EVQVVESGGGLVKPGGSLRLSCAASGFIFSKAWMSWVRQAPGKGLEWVGRIKSKTDGGTTDYAAPVKGRFTISRDDSKNTLYLQMNSLKTEDTAVYYCTTGGYVFDYWGQGALVTVSS VL: not shown
4 | 8.05e-10 M (implied; unit not printed) | 100% | 7.66e-09 M (implied; unit not printed) | 76% | no binding (tested: 100 nM) | 3.94 nM | 0.199 | 0.004 s⁻¹ | 1.01e+06 M⁻¹ s⁻¹ | 0.834 nM | 0.257 | 0.000411 s⁻¹ | 493000 M⁻¹ s⁻¹ | STLX2016 (antibody, V domains shown, Purified from hybridoma of immunized Alivamab mice; intact IgG; captured on anti-mouse IgG Fc sensors in Octet; lambda light chain; also called 74804_16M09A) VH: QVQLQESGPGLVKPSETLSLTCTVSGGSISSYFWNWIRQPPGKGLEWIGYGHYSGNSNHNPSLKSRVTISVDMSKNQFSLKMSSVTAADTAMYYCAREGLHDAFDIWGQGTMVTVSS VL: not shown
5 | 2.31e-09 M (implied; unit not printed) | 98% | 1.24e-08 M (implied; unit not printed) | 76% | no binding (tested: 100 nM) | 2.59 nM | 0.169 | 0.000369 s⁻¹ | 143000 M⁻¹ s⁻¹ | 2.24 nM | 0.153 | 0.000359 s⁻¹ | 160000 M⁻¹ s⁻¹ | STLX2030 (antibody, V domains shown, Purified from hybridoma of immunized Alivamab mice; intact IgG; captured on anti-mouse IgG Fc sensors in Octet; kappa light chain; also called 74804_30O16A) VH: QVQLVQSGAEVKRPGASVKVSCKASGYTFTGYYMHWVRQAPGQGLEWMGWINPYSGGTDYAQKFQDRVTMTRDTSISTAYMELSRLRSDDTAVYYCARSYYYYGMDVWGQGITVTVSS VL: not shown
6 | 7.92e-10 M (implied; unit not printed) | 98% | 8.12e-09 M (implied; unit not printed) | 73% | no binding (tested: 100 nM) | 1.68 nM | 0.223 | 0.00206 s⁻¹ | 1.23e+06 M⁻¹ s⁻¹ | 1.23 nM | 0.268 | 0.000684 s⁻¹ | 558000 M⁻¹ s⁻¹ | STLX2044 (antibody, V domains shown, Purified from hybridoma of immunized Alivamab mice; intact IgG; captured on anti-mouse IgG Fc sensors in Octet; lambda light chain; also called 74804_44J14A) VH: QVQLQESGPGLVKPSETLSLTCTVSGGSVFSYFWNWIRQPPVKGLEWIGYIDHSGGTNYNPSLKSRVTMSVDTSKNQFSLKLSSVTAADTAVYYCAREGLHDAFDIWGQGTLVTVSS VL: not shown
7 | 1.72e-09 M (implied; unit not printed) | 101% | 1.7e-08 M (implied; unit not printed) | 87% | no binding (tested: 100 nM) | 1.23 nM | 0.342 | 0.000413 s⁻¹ | 334000 M⁻¹ s⁻¹ | 0.803 nM | 0.308 | 0.000233 s⁻¹ | 290000 M⁻¹ s⁻¹ | STLX2001N (antibody, V domains shown, Purified from hybridoma of immunized Alivamab mice; intact IgG; captured on anti-mouse IgG Fc sensors in Octet; kappa light chain; also called 74804_01N02A) VH: EVQLVQSGAEVKKPGESLKISCKGSGYSFTSYWIVWVRQMPGKGLEWMGFIYPGNSDTRYSPSFQGQVTISADQSISTAYLQWSSLKASDTATYYCARGGSYYLDYWGQGTLVTVSS VL: not shown

Reference: US20240392013A1 (STELEXIS THERAPEUTICS, published 2024)
